B1: ReAV R47A mutant (Rhizobium etli Class 3, type V L-asparaginase) (enzyme)
chain: MTPSEDFVVTDRGGIVENSHRVHAAVVDAKGRLLYALGNPTRMTLAASAAKPAQALAILETEGVAGYGFDDADIALMCASHSSEDRHIARTRAMLSKIKAEEADLRCGGHPSLSEMVNRSWIKQDFIPTAVCSNCSGKHVGMLAGARAIGAGTDGYHLPDHPMQGRVKRTVAELCDLDAGDVEWGTDGCNLPTPAFPLDRLGRIYAKLASAADGSDAGEGQSTRCAALAHIFRAMARHPEMVAGEGRYCTMLMRAFDGALVGKLGADASYAIGVRASDATRQLGTDGALGISVKIEDGNLEMLYAVVTELLERLGIGSPDVRSQLASFHHPQRVNTMGVTTGGVSFPFKLRGSKSNVDDPRLAAVAR
notes: ReAV, inducible thermolabile type V L-asparaginase of Rhizobium etli; Homodimer; source: E. coli BL21-Gold (DE3), purified (HisTrap, TEV digestion, second HisTrap, Superdex 200)
B2: ReAV K51A mutant (in fact the double mutant K51A/H238Y; Rhizobium etli Class 3, type V L-asparaginase) (enzyme)
chain: MTPSEDFVVTDRGGIVENSHRVHAAVVDAKGRLLYALGNPTRMTLARSAAAPAQALAILETEGVAGYGFDDADIALMCASHSSEDRHIARTRAMLSKIKAEEADLRCGGHPSLSEMVNRSWIKQDFIPTAVCSNCSGKHVGMLAGARAIGAGTDGYHLPDHPMQGRVKRTVAELCDLDAGDVEWGTDGCNLPTPAFPLDRLGRIYAKLASAADGSDAGEGQSTRCAALAHIFRAMARYPEMVAGEGRYCTMLMRAFDGALVGKLGADASYAIGVRASDATRQLGTDGALGISVKIEDGNLEMLYAVVTELLERLGIGSPDVRSQLASFHHPQRVNTMGVTTGGVSFPFKLRGSKSNVDDPRLAAVAR
notes: ReAV, inducible thermolabile type V L-asparaginase of Rhizobium etli; the crystallised protein carries the unintended second mutation H238Y; Homodimer; Zn2+ at occupancy 0.5 in the crystal; source: E. coli BL21-Gold (DE3), purified (HisTrap, TEV digestion, second HisTrap, Superdex 200)
B3: ReAV S80A mutant (Rhizobium etli Class 3, type V L-asparaginase) (enzyme)
chain: MTPSEDFVVTDRGGIVENSHRVHAAVVDAKGRLLYALGNPTRMTLARSAAKPAQALAILETEGVAGYGFDDADIALMCAAHSSEDRHIARTRAMLSKIKAEEADLRCGGHPSLSEMVNRSWIKQDFIPTAVCSNCSGKHVGMLAGARAIGAGTDGYHLPDHPMQGRVKRTVAELCDLDAGDVEWGTDGCNLPTPAFPLDRLGRIYAKLASAADGSDAGEGQSTRCAALAHIFRAMARHPEMVAGEGRYCTMLMRAFDGALVGKLGADASYAIGVRASDATRQLGTDGALGISVKIEDGNLEMLYAVVTELLERLGIGSPDVRSQLASFHHPQRVNTMGVTTGGVSFPFKLRGSKSNVDDPRLAAVAR
modifications: Cys249 most likely oxidized, modeled as cysteinesulfinic acid
notes: ReAV, inducible thermolabile type V L-asparaginase of Rhizobium etli; Homodimer; source: E. coli BL21-Gold (DE3), purified (HisTrap, TEV digestion, second HisTrap, Superdex 200); mostly in inclusion bodies, about 10 mg/L recovered from the cell lysate
B4: ReAV S48A mutant (Rhizobium etli Class 3, type V L-asparaginase) (enzyme)
chain: MTPSEDFVVTDRGGIVENSHRVHAAVVDAKGRLLYALGNPTRMTLARAAAKPAQALAILETEGVAGYGFDDADIALMCASHSSEDRHIARTRAMLSKIKAEEADLRCGGHPSLSEMVNRSWIKQDFIPTAVCSNCSGKHVGMLAGARAIGAGTDGYHLPDHPMQGRVKRTVAELCDLDAGDVEWGTDGCNLPTPAFPLDRLGRIYAKLASAADGSDAGEGQSTRCAALAHIFRAMARHPEMVAGEGRYCTMLMRAFDGALVGKLGADASYAIGVRASDATRQLGTDGALGISVKIEDGNLEMLYAVVTELLERLGIGSPDVRSQLASFHHPQRVNTMGVTTGGVSFPFKLRGSKSNVDDPRLAAVAR
notes: ReAV, inducible thermolabile type V L-asparaginase of Rhizobium etli; Homodimer; Zn2+ at occupancy 0.7 in the crystal; source: E. coli BL21-Gold (DE3), purified (HisTrap, TEV digestion, second HisTrap, Superdex 200)
B5: ReAV K263A mutant (Rhizobium etli Class 3, type V L-asparaginase) (enzyme)
chain: MTPSEDFVVTDRGGIVENSHRVHAAVVDAKGRLLYALGNPTRMTLARSAAKPAQALAILETEGVAGYGFDDADIALMCASHSSEDRHIARTRAMLSKIKAEEADLRCGGHPSLSEMVNRSWIKQDFIPTAVCSNCSGKHVGMLAGARAIGAGTDGYHLPDHPMQGRVKRTVAELCDLDAGDVEWGTDGCNLPTPAFPLDRLGRIYAKLASAADGSDAGEGQSTRCAALAHIFRAMARHPEMVAGEGRYCTMLMRAFDGALVGALGADASYAIGVRASDATRQLGTDGALGISVKIEDGNLEMLYAVVTELLERLGIGSPDVRSQLASFHHPQRVNTMGVTTGGVSFPFKLRGSKSNVDDPRLAAVAR
modifications: Cys249 chemically modified, modeled as S-hydroxycysteine
notes: ReAV, inducible thermolabile type V L-asparaginase of Rhizobium etli; Homodimer; Zn2+ at occupancy 0.8 in the crystal; source: E. coli BL21-Gold (DE3), purified (HisTrap, TEV digestion, second HisTrap, Superdex 200)

Molecular target: the molecule itself
Test: crystal structure; hanging-drop vapor diffusion at 19 °C, protein 15-21 mg/mL with 0.5-1% v/v DDM; data at 100 K; molecular replacement with WT ReAV PDB 7os5; dimers in the asymmetric unit

Binding result, binds:
B1
B2
B3
B4
B5

Source: publication PMC12292245, “Probing the Active Site of Class 3 L-Asparaginase by Mutagenesis: Mutations of the Ser-Lys Tandems of ReAV” (Biomolecules, 2025)
